Test results from patent publication US20220317121A1.

Experiments:
Experiment in all cases: line blot with purified recombinant antigen
H8-CD2BP2[human] (human) = H8-CD2BP2[human] (human) (UniProt O95400)
[1] = molecular target: H8-TJP1[human](aa1-575) (human) (UniProt Q07157)
[2] = molecular target: NVL[human]-IF1-H6 (human) (UniProt O15381)
Chain of UniProt O15381 (O15381 other isoform, or with tags, fused parts or gaps limits assumed): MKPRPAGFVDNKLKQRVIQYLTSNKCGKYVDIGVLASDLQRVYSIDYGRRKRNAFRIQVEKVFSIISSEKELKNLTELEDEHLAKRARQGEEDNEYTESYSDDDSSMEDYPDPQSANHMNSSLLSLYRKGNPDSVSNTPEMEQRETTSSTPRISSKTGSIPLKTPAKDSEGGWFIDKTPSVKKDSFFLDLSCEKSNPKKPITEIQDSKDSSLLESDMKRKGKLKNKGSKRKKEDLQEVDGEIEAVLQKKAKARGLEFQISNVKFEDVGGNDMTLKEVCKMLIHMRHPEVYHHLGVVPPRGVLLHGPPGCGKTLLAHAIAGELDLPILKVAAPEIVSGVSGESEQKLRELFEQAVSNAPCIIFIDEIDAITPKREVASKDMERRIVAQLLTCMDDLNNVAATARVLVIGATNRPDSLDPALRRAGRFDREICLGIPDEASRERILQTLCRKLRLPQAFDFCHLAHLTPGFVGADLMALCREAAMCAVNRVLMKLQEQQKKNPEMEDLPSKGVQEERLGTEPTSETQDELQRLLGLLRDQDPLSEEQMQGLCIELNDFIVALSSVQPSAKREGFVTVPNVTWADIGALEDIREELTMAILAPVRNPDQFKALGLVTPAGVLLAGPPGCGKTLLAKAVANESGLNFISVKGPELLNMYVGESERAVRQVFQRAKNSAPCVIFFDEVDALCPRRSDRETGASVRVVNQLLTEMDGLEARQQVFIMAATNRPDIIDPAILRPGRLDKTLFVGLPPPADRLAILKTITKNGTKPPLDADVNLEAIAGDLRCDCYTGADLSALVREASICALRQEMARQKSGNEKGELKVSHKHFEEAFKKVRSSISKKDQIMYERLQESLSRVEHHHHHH

Chain of UniProt Q07157 (Q07157 other isoform, or with tags, fused parts or gaps limits assumed): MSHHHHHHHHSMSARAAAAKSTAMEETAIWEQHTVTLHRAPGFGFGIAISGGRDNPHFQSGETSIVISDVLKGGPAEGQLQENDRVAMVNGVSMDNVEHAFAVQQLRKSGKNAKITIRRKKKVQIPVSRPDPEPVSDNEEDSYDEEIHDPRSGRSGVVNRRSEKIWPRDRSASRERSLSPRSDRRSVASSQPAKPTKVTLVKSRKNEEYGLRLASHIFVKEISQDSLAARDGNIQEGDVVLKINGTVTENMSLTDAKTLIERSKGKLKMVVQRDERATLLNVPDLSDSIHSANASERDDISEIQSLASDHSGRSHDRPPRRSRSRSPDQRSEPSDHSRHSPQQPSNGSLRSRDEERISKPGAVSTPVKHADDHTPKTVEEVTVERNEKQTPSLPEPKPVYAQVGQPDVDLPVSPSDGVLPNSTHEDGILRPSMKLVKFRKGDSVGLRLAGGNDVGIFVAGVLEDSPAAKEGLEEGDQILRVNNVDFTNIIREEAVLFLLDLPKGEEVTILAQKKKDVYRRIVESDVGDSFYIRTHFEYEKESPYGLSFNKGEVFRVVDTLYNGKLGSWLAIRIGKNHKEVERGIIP
Chain of UniProt O95400 (O95400 other isoform, or with tags, fused parts or gaps limits assumed): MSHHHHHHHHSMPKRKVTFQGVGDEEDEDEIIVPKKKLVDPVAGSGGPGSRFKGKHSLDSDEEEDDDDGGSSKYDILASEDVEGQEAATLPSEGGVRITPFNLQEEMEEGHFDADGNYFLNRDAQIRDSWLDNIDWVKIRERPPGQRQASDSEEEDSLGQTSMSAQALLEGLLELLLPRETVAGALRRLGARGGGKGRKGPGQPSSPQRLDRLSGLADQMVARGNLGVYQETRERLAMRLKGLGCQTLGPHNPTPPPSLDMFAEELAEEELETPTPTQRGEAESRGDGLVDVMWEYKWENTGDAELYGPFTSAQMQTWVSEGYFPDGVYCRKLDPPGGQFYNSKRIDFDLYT

anti-His-tag-AP (monoclonal anti-His-AP antibody produced in mouse, A5588, Sigma-Aldrich)
band intensity (H8-CD2BP2[human] (human)): 111 | band intensity [1]: 101 | band intensity [2]: 15
